B1: Signal recognition particle 19kDa (other)
chain: MACAAARSPADQDRFICIYPAYLNNKKTIAEGRRIPISKAVENPTATEIQDVCSAVGLNVFLEKNKMYSREWNRDVQYRGRVRVQLKQEDGSLCLVQFPSRKSVMLYAAEMIPKLKTRTQKTGGADQSLQQGEGSKKGKGKKKK
notes: also called SRP19
B2: DIM1 dimethyladenosine transferase 1 homolog (S. cerevisiae) (enzyme)
chain: MPKVKSGAIGRRRGRQEQRRELKSAGGLMFNTGIGQHILKNPLIINSIIDKAALRPTDVVLEVGPGTGNMTVKLLEKAKKVVACELDPRLVAELHKRVQGTPVASKLQVLVGDVLKTDLPFFDTCVANLPYQISSPFVFKLLLHRPFFRCAILMFQREFALRLVAKPGDKLYCRLSINTQLLARVDHLMKVGKNNFRPPPKVESSVVRIEPKNPPPPINFQEWDGLVRITFVRKNKTLSAAFKSSAVQQLLEKNYRIHCSVHNIIIPEDFSIADKIQQILTSTGFSDKRARSMDIDDFIRLLHGFNAEGIHFS
notes: also called DIMT1
B3: Vaccinia related kinase 1 (enzyme)
chain: MPRVKAAQAGRQSSAKRHLAEQFAVGEIITDMAKKEWKVGLPIGQGGFGCIYLADMNSSESVGSDAPCVVKVEPSDNGPLFTELKFYQRAAKPEQIQKWIRTRKLKYLGVPKYWGSGLHDKNGKSYRFMIMDRFGSDLQKIYEANAKRFSRKTVLQLSLRILDILEYIHEHEYVHGDIKASNLLLNYKNPDQVYLVDYGLAYRYCPEGVHKEYKEDPKRCHDGTIEFTSIDAHNGVAPSRRGDLEILGYCMIQWLTGHLPWEDNLKDPKYVRDSKIRYRENIASLMDKCFPEKNKPGEIAKYMETVKLLDYTEKPLYENLRDILLQGLKAIGSKDDGKLDLSVVENGGLKAKTITKKRKKEIEESKEPGVEDTEWSNTQTEEAIQTRSRTRKRVQK
notes: also called VRK1

For this assay, the target named is biotinylated full-length Dengue virus capsid (DENV C) protein (Dengue virus serotype 2 (NGC strain)). Description: ELISA, coated bought protein, biotinylated DENV C as probe, streptavidin-HRP.
B1: the binding result is “binds”. On to B2, for which the binding result is “binds”. As to B3, the binding result is “binds”.

The values above are taken from US20170158742A1 (NATIONAL UNIVERSITY OF SINGAPORE, published 2017).
